For this data set, the target named is T1, hPh1 FCS domain (Polyhomeotic homolog 1) (human, UniProt P78364 783-828).
T1 chain: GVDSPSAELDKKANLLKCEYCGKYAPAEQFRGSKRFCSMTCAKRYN
Put plainly: NMR HSQC titration.

The text below walks through data of PMC3938326.

As for GGGCACGCGUAUUGCCCUAGUGGCCGGCGUGCCC (structured_RNA) [34nt RNA], the dissociation constant Kd (usually the constant that tells how readily two partners part at equilibrium) came to 3 ± 1.1 mM.
